According to patent US12102653B2, “Ligand regulated protein-protein interaction system” (ST. ANNA KINDERKREBSFORSCHUNG, priority 2017, dated 2024):

B1: RS5: rcSso7d-based lipocalin-fold binding interaction partner binding RBP4 in an A1120-dependent manner (protein)
chain: ATVKFTYQGEEKQVDISKIKRVARYGQGIYFDYGEGGGAWGYGSVSEEDAPKELLQMLEKQ
B2: RS3: rcSso7d-based lipocalin-fold binding interaction partner binding RBP4 in an A1120-dependent manner (protein)
chain: ATVKLTYQGEEKQVDISKIKRVARYGQNIYFSYDEGGGAYDYGAVSEKDAPKELLQMLEKQ
B3: RF2: FN3-based lipocalin-fold binding interaction partner binding RBP4 in an A1120-dependent manner (protein)
chain: VSDVPRDLEVVAATPTSLLISWYYPNASHAGYYRITYGETGGNSPVQEFTVPFSIRYTIATISGLKPGVDYTITVYAVTDYAYYYRLSEPISINYRTEIDKPSQ

What was measured:
RBP4 [1] = molecular target: T1, RBP4 (Homo sapiens, UniProt P02753); conditions: ligand-induced conformational changes of human RBP4; cited from earlier work
[2] = Differential scanning calorimetry (DSC) of RBP4 binding interaction partners; conditions: 80 μM protein, 20-110° C.
Description: The stability of RBP4-binding interaction partners is evaluated by determining the melting temperature (Tm) by differential scanning calorimetry (DSC) using MicroCal VP-DSC capillary cell microcalorimeter (MicroCal). Briefly, 30 μM protein solution is exposed to an increasing temperature ranging from 20-110° C. with a heating rate of 1° C./min. Buffer baseline is subtracted and the resulting data are normalized for protein concentration, followed by fitting with a non-two-state thermal unfolding model.
The thermal stability of RBP4 binding interaction partners was evaluated by determining the melting temperature (Tm) by differential scanning calorimetry (DSC) using the PEAQ Differential Scanning Calorimeter Automated (Malvern Panalytical). Briefly, 80 μM protein solution was exposed to an increasing temperature ranging from 20-110° C. with a heating rate of 1° C./min. Buffer baseline was subtracted and the resulting data were normalized for protein concentration, followed by fitting with a non-two-state thermal unfolding model.

RBP4 [3] = molecular target: T1, RBP4; test: Isothermal titration calorimetry (ITC) of binder-RBP4 interaction; format: binding; design: Human His-tagged RBP4 (residues 19-201) in pPICZ-alpha-A vector; made in house; host or cells: Pichia pastoris KM71H (secreted); conditions: presence (50 μM) and absence of A1120
Description: For the thermodynamic characterization of the interaction between RBP4 and rcSso7d- or FN3-based lipocalin-fold binding interaction partners, isothermal titration calorimetry (ITC) is conducted using an automated MicroCal PEAQ-ITC instrument (Malvern Instruments). The samples are centrifuged (17,000 g, 10 min, 20° C.) and filtered (0.1 μm Ultrafree-MC filter, Merck Millipore). RBP4 protein solution is applied to the sample cell and the respective binders are titrated with varying intervals. Different concentrations both for RBP4 and binders are used and in some experiments, binders are applied to the sample cell and RBP4 is titrated. The experiments are performed both in the presence and absence of the ligand A1120 or other ligands. Data analysis is performed with the MicroCal PEAQ-ITC analysis software.
For the thermodynamic characterization of the interaction between RBP4 and rcSso7d- or FN3-based lipocalin-fold binding interaction partners (in this case RBP4 binding interaction partners), isothermal titration calorimetry (ITC) was conducted using the PEAQ Isothermal Titration Calorimeter Automated (Malvern Panalytical). The samples were centrifuged (17000 g, 10 min, 20° C.) and dialysed against the same buffer (PBS). RBP4 protein solution was applied to the sample cell and the respective RBP4 binding interaction partners were titrated with varying intervals. Different concentrations both for RBP4 and RBP4 binding interaction partners were used. […] Data analysis was performed with the MicroCal PEAQ-ITC analysis software and the resulting data were fitted to a one-set-of-sites binding model. […] The signature plots show the thermodynamic parameters of the interaction between RBP4 and RS3. One representative experiment out of four independent experiments is shown. […] The integrated data were fitted to one-set-of-sites binding model to calculate the KD values in FIG. 18. Signature plots show the thermodynamic parameters of the interaction. One representative experiment out of four independent experiments is shown.

[4] = Analytical size exclusion chromatography (SEC) of RBP4 binding interaction partners; format: physicochemical; conditions: PBS with 200 mM NaCl, 25° C.
Description: For analytical SEC analysis, a total amount of 25 μg rcSso7d or FN3 mutants in running buffer (PBS with 200 mM NaCl) is filtered through 0.1 μm Ultrafree-MC filter (Merck Millipore), applied to a Superdex 200 10/300 GL column (GE healthcare) connected to an HPLC prominence LC20 system (Shimadzu) and eluted with a flow rate of 0.75 mL/min at 25° C. In addition, multi-angle light scattering (MALS) is used for determining the molecular mass using WYATT Heleos Dawn8+ plus QELS, a refractive index detector RID-10A (Shimadzu) and a diode array detector SPD-M20A (Shimadzu).
For analytical SEC analysis, a total amount of 25 μg of RBP4 binding interaction partners in running buffer (PBS with 200 mM NaCl) was filtered through a 0.1 μm Ultrafree-MC filter (Merck Millipore), applied to a Superdex 200 10/300 GL column (GE healthcare) connected to an HPLC Prominence LC20 system (Shimadzu) and eluted with a flow rate of 0.75 mL/min at 25° C.

RBP4 [5] = molecular target: T1, RBP4; test: Surface plasmon resonance (SPR), RBP4 immobilized on chip; format: binding; design: Human His-tagged RBP4 (residues 19-201) in pPICZ-alpha-A vector; made in house; host or cells: Pichia pastoris KM71H (secreted); conditions: for dependence of affinity to RBP4 on the lipocalin-fold ligand A1120: SPR, presence (5 μM) and absence of A1120
Description: Surface plasmon resonance (SPR) is used to determine the affinity of the interaction between RBP4 and rcSso7d- or FN3-based lipocalin-fold binding interaction partners and is performed with BiacoreT200 (GE healthcare). The antigen (RBP4) is coated onto a chip and incubated with various concentrations of binder solution in PBS, followed by a dissociation phase in PBS only. All measurements are performed both in the presence and absence of A1120 or other ligands. Finally, kon, koff and Kd values are obtained by global fitting.
Surface plasmon resonance (SPR) was used to determine the affinity of the interaction between RBP4 and rcSso7d- or FN3-based lipocalin-fold binding interaction partners and was performed with BiacoreT200 (GE Healthcare). The antigen (RBP4) was coated onto a CM5 chip (GE Healthcare) and incubated with various concentrations of lipocalin-fold binding interaction partner solution in HBS-EP (GE Healthcare), followed by a dissociation phase in HBS-EP. […] Finally, Kd values (dissociation constants) were obtained by steady-state analysis. […] KD values were calculated by steady-state analysis (right diagram in A and C). One representative experiment out of four independent experiments is shown.

SPR binding signal to RBP4 (RBP4 [5]; absence of A1120, same RS3 concentrations as used with 5 μM A1120) | Molecule | effect of ligand on the RBP4-TTR interaction (RBP4 [1]) | thermal stability (DSC analysis) [2] | dependence of affinity to RBP4 on the lipocalin-fold ligand A1120 (RBP4 [3]) | folding and oligomeric state (SEC analysis) [4] | dependence of affinity to RBP4 on the lipocalin-fold ligand A1120 (RBP4 [5])
 | CC1=C(/C=C/C(C)=C/C=C/C(C)=C/C(=O)Nc2ccc(O)cc2)C(C)(C)CCC1 [Fenretinide, 15-[(4-hydroxyphenyl)amino]retinal] | dissociation from TTR |  |  |  | 
 | CCNC(=O)/C=C(C)/C=C/C=C(C)/C=C/C1=C(C)CCCC1(C)C [N-Ethylretinamide] | dissociation from TTR |  |  |  | 
 | CC1=C(/C=C/C(C)=C/C=C/C(C)=C/C(=O)O)C(C)(C)CCC1 [all-trans retinoic acid] | dissociation from TTR |  |  |  | 
 | C/C=C(C)/C=C/C=C(C)/C=C/C1=C(C)CCCC1(C)C [axerophthene] | dissociation from TTR |  |  |  | 
 | CC(=O)OC/C=C(C)/C=C/C=C(C)/C=C/C1=C(C)CCCC1(C)C [retinyl acetate] | dissociation from TTR |  |  |  | 
 | B1 |  | stable proteins | strongly depend on the presence of the lipocalin-fold ligand | well folded, monomeric proteins | strongly depend on the presence of the lipocalin-fold ligand
almost no signal | B2 |  | stable proteins | strongly depend on the presence of the lipocalin-fold ligand | well folded, monomeric proteins | strongly depend on the presence of the lipocalin-fold ligand
 | B3 |  |  | strongly depend on the presence of the lipocalin-fold ligand | well folded, monomeric proteins | strongly depend on the presence of the lipocalin-fold ligand
